Source: EP0877803B1

Legend:
[1] = target: OB protein; assay: BIACORE; OB protein immobilized, conditioned medium of 293 cells expressing the receptor
[2] = target: OB protein; assay: BIACORE; OB protein immobilized, conditioned medium of CHO cells expressing the receptor

| BIACORE read-out [1] | BIACORE read-out [2] | Substance |
| --- | --- | --- |
| 191 | 151 | recombinant soluble human OB receptor (leader + extracellular domain, Seq. ID No. 10) |
| 172 |  | recombinant soluble human OB receptor with a C-terminal FLAG-tag (Seq. ID No. 12) |
